These results are taken from patent publication US20050065324A1.

The target of test [1] is recombinant human TSP fragment of ~140 kDa engineered to lack the N-terminal heparin-binding domain (human). The test can be described thus: sandwich ELISA, Ab-4 capture, Ab-8 detection; analyte at 200.0 ng/mL.
Test [2] addresses human platelet thrombospondin (thrombospondin-1) (human) (UniProt P07996). The description is as above.
Test [3] concerns the target recombinant human TSP fragment of ~140 kDa engineered to lack the N-terminal heparin-binding domain (human). Description: sandwich ELISA, Ab-4 capture, Ab-8 detection; analyte at 12.50 ng/mL. In general terms: In an ELISA, binding on a coated surface is turned into a signal by an enzyme label.
For test [4], the target named is human platelet thrombospondin (thrombospondin-1) (human) (UniProt P07996). Described as above.
Test [5] addresses recombinant human TSP fragment of ~140 kDa engineered to lack the N-terminal heparin-binding domain (human). The test can be described thus: sandwich ELISA, Ab-4 capture, Ab-8 detection; analyte at 50.00 ng/mL.
For test [6], the target named is human platelet thrombospondin (thrombospondin-1) (human) (UniProt P07996). The description is as above.
Test [7] concerns the target recombinant human TSP fragment of ~140 kDa engineered to lack the N-terminal heparin-binding domain (human). Description: sandwich ELISA, Ab-4 capture, Ab-8 detection; analyte at 3.125 ng/mL.
For test [8], the target named is human platelet thrombospondin (thrombospondin-1) (human) (UniProt P07996). The description is as above.
In test [9] the target is recombinant human TSP fragment of ~140 kDa engineered to lack the N-terminal heparin-binding domain (human). Description: sandwich ELISA, Ab-4 capture, Ab-8 detection; analyte at 100.0 ng/mL.
Test [10] addresses human platelet thrombospondin (thrombospondin-1) (human) (UniProt P07996). The test is described as above.
In test [11] the target is recombinant human TSP fragment of ~140 kDa engineered to lack the N-terminal heparin-binding domain (human). The test can be described thus: sandwich ELISA, Ab-4 capture, Ab-8 detection; analyte at 25.00 ng/mL.
Test [12] has as its target human platelet thrombospondin (thrombospondin-1) (human) (UniProt P07996). The test is described as above.
For test [13], the target named is recombinant human TSP fragment of ~140 kDa engineered to lack the N-terminal heparin-binding domain (human). The test can be described thus: sandwich ELISA, Ab-4 capture, Ab-8 detection; analyte at 6.250 ng/mL.
For test [14], the target named is human platelet thrombospondin (thrombospondin-1) (human) (UniProt P07996). The description is as above.

UniProt P07996, sequence (P07996 19-1170 T523A): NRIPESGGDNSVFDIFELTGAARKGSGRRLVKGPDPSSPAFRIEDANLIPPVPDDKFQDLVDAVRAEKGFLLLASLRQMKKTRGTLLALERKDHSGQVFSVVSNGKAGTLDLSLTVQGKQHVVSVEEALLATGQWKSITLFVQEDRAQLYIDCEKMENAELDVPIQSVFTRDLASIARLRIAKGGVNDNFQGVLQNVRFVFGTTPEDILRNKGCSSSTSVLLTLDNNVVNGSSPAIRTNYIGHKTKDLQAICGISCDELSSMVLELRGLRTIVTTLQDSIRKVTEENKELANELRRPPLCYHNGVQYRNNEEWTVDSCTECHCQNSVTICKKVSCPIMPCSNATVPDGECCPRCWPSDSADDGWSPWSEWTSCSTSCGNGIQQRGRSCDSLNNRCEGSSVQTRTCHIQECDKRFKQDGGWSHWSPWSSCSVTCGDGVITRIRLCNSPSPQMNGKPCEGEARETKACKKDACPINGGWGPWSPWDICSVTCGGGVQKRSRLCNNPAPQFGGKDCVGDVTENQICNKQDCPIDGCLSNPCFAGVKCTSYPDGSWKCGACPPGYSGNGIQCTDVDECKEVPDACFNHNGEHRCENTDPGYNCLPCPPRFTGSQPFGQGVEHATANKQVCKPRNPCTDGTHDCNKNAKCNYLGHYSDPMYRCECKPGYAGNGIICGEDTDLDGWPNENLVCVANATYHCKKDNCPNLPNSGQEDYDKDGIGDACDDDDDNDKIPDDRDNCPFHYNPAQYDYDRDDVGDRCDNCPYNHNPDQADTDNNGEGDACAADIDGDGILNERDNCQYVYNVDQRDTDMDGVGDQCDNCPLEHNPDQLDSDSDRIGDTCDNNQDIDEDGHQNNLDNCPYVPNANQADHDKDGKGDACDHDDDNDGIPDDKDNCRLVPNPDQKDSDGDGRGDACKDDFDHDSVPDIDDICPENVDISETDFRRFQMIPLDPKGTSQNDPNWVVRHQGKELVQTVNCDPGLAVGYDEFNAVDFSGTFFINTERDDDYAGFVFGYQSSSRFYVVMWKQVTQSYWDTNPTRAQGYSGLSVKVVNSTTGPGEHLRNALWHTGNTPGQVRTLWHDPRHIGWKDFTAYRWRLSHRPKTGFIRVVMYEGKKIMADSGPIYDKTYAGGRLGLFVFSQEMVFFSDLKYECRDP

For TSP Ab-4 (Clone A6.1) (antibody), the ELISA OD-450 turned out to be 2.56 OD-450 in test [1]; 2.5 OD-450 in test [2]; 0.662 OD-450 in test [3]; 0.713 OD-450 in test [4]; 1.8 OD-450 in [5]; 1.57 OD-450 in test [6]. For the same substance, the ELISA OD-450 came out at 0.279 OD-450 in test [7]; 0.345 OD-450 in [8]; 2.2 OD-450 in test [9]; 2.09 OD-450 in [10]; 1.17 OD-450 in [11]; 1.08 OD-450 in [12]. The ELISA OD-450 in test [13] was 0.4 OD-450; in test [14] it was 0.514 OD-450.
